Results: patent US20040053332A1

Target: ER-DEVD-Luc (mouse; firefly)
Experiment: cell-based or functional assay

cleavage of the 90 kDa fusion to a 60 kDa polypeptide (western blot, 293T cells treated with staurosporine): 50%
Substance: caspase-3 (from UniProt P42574 29-277)
